Assay results reported in patent publication US20230220042A1 (SHANGHAI JIAO TONG UNIVERSITY SCHOOL OF MEDICINE, published 2023).

Experiments:
human OX40 (human) = human OX40 (human) (UniProt P43489); experiment: cell-based or functional assay
Biotin-FcγRIIB = molecular target: T1, Biotin-FcγRIIB (human, UniProt P31994 43-217, limits assumed, biotin-labelled); experiment: FACS sorting of displayed Fc library on biotin-FcγRIIB, NGS
T1 construct: Bought, biotin-labelled; used at 1 µg/ml for staining and sorting; also called human FcγRIIB; CD32b
T1 sequence (looked up): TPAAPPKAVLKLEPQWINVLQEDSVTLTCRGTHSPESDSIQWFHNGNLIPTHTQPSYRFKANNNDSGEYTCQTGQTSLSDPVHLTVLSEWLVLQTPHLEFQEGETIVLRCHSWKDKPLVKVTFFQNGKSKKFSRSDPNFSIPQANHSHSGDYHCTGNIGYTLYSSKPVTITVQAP

Chain of human OX40 (human) (P43489 29-277): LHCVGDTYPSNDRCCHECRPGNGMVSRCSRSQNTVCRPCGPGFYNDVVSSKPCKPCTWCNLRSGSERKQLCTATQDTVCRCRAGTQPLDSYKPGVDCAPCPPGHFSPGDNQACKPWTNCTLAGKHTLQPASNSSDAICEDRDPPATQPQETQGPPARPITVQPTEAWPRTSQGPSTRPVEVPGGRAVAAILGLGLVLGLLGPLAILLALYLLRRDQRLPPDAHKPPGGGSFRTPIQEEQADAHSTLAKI

Molecule	Average increased factor of the activity over wild-type IgG2 of two experiments (human OX40 (human))	Experiment 1 CFSE fluorescence intensity, 0.01 µg/ml (human OX40 (human))	Experiment 1 CFSE fluorescence intensity, 0.1 µg/ml (human OX40 (human))	Experiment 1 CFSE fluorescence intensity, 1 µg/ml (human OX40 (human))	Experiment 2 CFSE fluorescence intensity, 0.1 µg/ml (human OX40 (human))	Experiment 2 CFSE fluorescence intensity, 1 µg/ml (human OX40 (human))	Average relative activity of two experiments (human OX40 (human))	Experiment 1 average relative activity (human OX40 (human))	Experiment 1 relative activity, 0.01 µg/ml (human OX40 (human))	Experiment 1 relative activity, 0.1 µg/ml (human OX40 (human))	Experiment 1 relative activity, 1 µg/ml (human OX40 (human))	Experiment 2 average relative activity (human OX40 (human))	Experiment 2 relative activity, 0.1 µg/ml (human OX40 (human))	Experiment 2 relative activity, 1 µg/ml (human OX40 (human))	Increased factor b Site 2 (point mutation/wild-type) (Biotin-FcγRIIB)	Increased factor b Site 1 (point mutation/wild-type) (Biotin-FcγRIIB)
Ctrl hIgG (antibody)	0.65	1020	1080	1070	2730	2590										
anti-human OX40 antibody, human IgG2 Fc mutant Mut_8 (V266L/L328W) (antibody, name in EU numbering) heavy: QVQLQESGPGLVKPSGTLSLTCAVSGGSISSSIWWSWVRQPPGKGLEWIGEIHHSGNTNCNPSLKSRVTISIDKSKNQFSLKLTSVTAADTAVYYCARAGTGTTLDYWGQGTLVTVSSASTKGPSVFPLAPCSRSTSESTAALGCLVKDYFPEPVTVSWNSGALTSGVHTFPAVLQSSGLYSLSSVVTVPSSNFGTQTYTCNVDHKPSNTKVDKTVERKCCVECPPCPAPPVAGPSVFLFPPKPKDTLMISRTPEVTCVVVDLSHEDPEVQFNWYVDGVEVHNAKTKPREEQFNSTFRVVSVLTVVHQDWLNGKEYKCKVSNKGWPAPIEKTISKTKGQPREPQVYTLPPSREEMTKNQVSLTCLVKGFYPSDIAVEWESNGQPENNYKTTPPMLDSDGSFFLYSKLTVDKSRWQQGNVFSCSVMHEALHNHYTQKSLSLSPGK light: EIVLTQSPGTLSLSPGERATLSCRASQSVSGDYLAWYQQKLGQAPRLLIYGASIRATGIPDRFSGSGSGTDFTLTISKLEPEDFAVYYCQQYGSSPLTFGGGTKVEIKRTVAAPSVFIFPPSDEQLKSGTASVVCLLNNFYPREAKVQWKVDNALQSGNSQESVTEQDSKDSTYSLSSTLTLSKADYEKHKVYACEVTHQGLSSPVTKSFNRGEC	12.3	844	719	799	1810	1440	0.54	0.46	0.36	0.59	0.44	0.65	0.55	0.75		
anti-human OX40 antibody, human IgG2 Fc mutant Mut_2 (H268D/S298L/L328W) (antibody, name in EU numbering) heavy: QVQLQESGPGLVKPSGTLSLTCAVSGGSISSSIWWSWVRQPPGKGLEWIGEIHHSGNTNCNPSLKSRVTISIDKSKNQFSLKLTSVTAADTAVYYCARAGTGTTLDYWGQGTLVTVSSASTKGPSVFPLAPCSRSTSESTAALGCLVKDYFPEPVTVSWNSGALTSGVHTFPAVLQSSGLYSLSSVVTVPSSNFGTQTYTCNVDHKPSNTKVDKTVERKCCVECPPCPAPPVAGPSVFLFPPKPKDTLMISRTPEVTCVVVDVSDEDPEVQFNWYVDGVEVHNAKTKPREEQFNLTFRVVSVLTVVHQDWLNGKEYKCKVSNKGWPAPIEKTISKTKGQPREPQVYTLPPSREEMTKNQVSLTCLVKGFYPSDIAVEWESNGQPENNYKTTPPMLDSDGSFFLYSKLTVDKSRWQQGNVFSCSVMHEALHNHYTQKSLSLSPGK light: EIVLTQSPGTLSLSPGERATLSCRASQSVSGDYLAWYQQKLGQAPRLLIYGASIRATGIPDRFSGSGSGTDFTLTISKLEPEDFAVYYCQQYGSSPLTFGGGTKVEIKRTVAAPSVFIFPPSDEQLKSGTASVVCLLNNFYPREAKVQWKVDNALQSGNSQESVTEQDSKDSTYSLSSTLTLSKADYEKHKVYACEVTHQGLSSPVTKSFNRGEC	16.5	685	654	677	1550	1150	0.72	0.67	0.65	0.71	0.66	0.8	0.69	0.9		
anti-human OX40 antibody, human IgG2 Fc mutant Mut_19 (V266L/S267E/H268S/E269V/P271C) (antibody, name in EU numbering) heavy: QVQLQESGPGLVKPSGTLSLTCAVSGGSISSSIWWSWVRQPPGKGLEWIGEIHHSGNTNCNPSLKSRVTISIDKSKNQFSLKLTSVTAADTAVYYCARAGTGTTLDYWGQGTLVTVSSASTKGPSVFPLAPCSRSTSESTAALGCLVKDYFPEPVTVSWNSGALTSGVHTFPAVLQSSGLYSLSSVVTVPSSNFGTQTYTCNVDHKPSNTKVDKTVERKCCVECPPCPAPPVAGPSVFLFPPKPKDTLMISRTPEVTCVVVDLESVDCEVQFNWYVDGVEVHNAKTKPREEQFNSTFRVVSVLTVVHQDWLNGKEYKCKVSNKGLPAPIEKTISKTKGQPREPQVYTLPPSREEMTKNQVSLTCLVKGFYPSDIAVEWESNGQPENNYKTTPPMLDSDGSFFLYSKLTVDKSRWQQGNVFSCSVMHEALHNHYTQKSLSLSPGK light: EIVLTQSPGTLSLSPGERATLSCRASQSVSGDYLAWYQQKLGQAPRLLIYGASIRATGIPDRFSGSGSGTDFTLTISKLEPEDFAVYYCQQYGSSPLTFGGGTKVEIKRTVAAPSVFIFPPSDEQLKSGTASVVCLLNNFYPREAKVQWKVDNALQSGNSQESVTEQDSKDSTYSLSSTLTLSKADYEKHKVYACEVTHQGLSSPVTKSFNRGEC	10.5	880	735	824	2090	1670	0.46	0.42	0.3	0.56	0.4	0.52	0.41	0.63		
human IgG2 anti-mouse CD40 surface displayed antibody, Fc mutant S298L (antibody, name in EU numbering, as m1; positions are Eu numbers; copies: 2 + 2) light chain (with the P2A rest): DTVLTQSPALAVSPGERVTISCRASDSVSTLMHWYQQKPGQQPKLLIYLASHLESGVPARFSGSGSGTDFTLTIDPVEADDTATYYCQQSWNDPWTFGGGTKLELKRTVAAPSVFIFPPSDEQLKSGTASVVCLLNNFYPREAKVQWKVDNALQSGNSQESVTEQDSKDSTYSLSSTLTLSKADYEKHKVYACEVTHQGLSSPVTKSFNRGECGSGATNFSLLKQAGDVEENPG heavy chain: EVQLVESDGGLVQPGRSLKLPCAASGFTFSDYYMAWVRQAPTKGLEWVASISYDGSSTYYRDSVKGRFTISRDNAKSTLYLQMDSLRSEDTATYYCGRHSSYFDYWGQGVMVTVSSASTKGPSVFPLAPCSRSTSESTAALGCLVKDYFPEPVTVSWNSGALTSGVHTFPAVLQSSGLYSLSSVVTVPSSNFGTQTYTCNVDHKPSNTKVDKTVERKCCVECPPCPAPPVAGPSVFLFPPKPKDTLMISRTPEVTCVVVDVSHEDPEVQFNWYVDGVEVHNAKTKPREEQFNLTFRVVSVLTVVHQDWLNGKEYKCKVSNKGLPAPIEKTISKTKGQPREPQVYTLPPSREEMTKNQVSLTCLVKGFYPSDIAVEWESNGQPENNYKTTPPMLDSDGSFFLYSKLTVDKSRWQQGNVFSCSVMHEALHNHYTQKSLSLSPGKLEPPPSTVSNMATVAVLVVLGAAIVTGAVVAFVMKMRRRNTGGKGGDYALAPGSQTSDLSLPDCKVMVHDPHSLA															2.9	
human IgG2 anti-mouse CD40 surface displayed antibody, Fc mutant S298N (antibody, name in EU numbering, as m1; positions are Eu numbers; copies: 2 + 2) light chain (with the P2A rest): DTVLTQSPALAVSPGERVTISCRASDSVSTLMHWYQQKPGQQPKLLIYLASHLESGVPARFSGSGSGTDFTLTIDPVEADDTATYYCQQSWNDPWTFGGGTKLELKRTVAAPSVFIFPPSDEQLKSGTASVVCLLNNFYPREAKVQWKVDNALQSGNSQESVTEQDSKDSTYSLSSTLTLSKADYEKHKVYACEVTHQGLSSPVTKSFNRGECGSGATNFSLLKQAGDVEENPG heavy chain: EVQLVESDGGLVQPGRSLKLPCAASGFTFSDYYMAWVRQAPTKGLEWVASISYDGSSTYYRDSVKGRFTISRDNAKSTLYLQMDSLRSEDTATYYCGRHSSYFDYWGQGVMVTVSSASTKGPSVFPLAPCSRSTSESTAALGCLVKDYFPEPVTVSWNSGALTSGVHTFPAVLQSSGLYSLSSVVTVPSSNFGTQTYTCNVDHKPSNTKVDKTVERKCCVECPPCPAPPVAGPSVFLFPPKPKDTLMISRTPEVTCVVVDVSHEDPEVQFNWYVDGVEVHNAKTKPREEQFNNTFRVVSVLTVVHQDWLNGKEYKCKVSNKGLPAPIEKTISKTKGQPREPQVYTLPPSREEMTKNQVSLTCLVKGFYPSDIAVEWESNGQPENNYKTTPPMLDSDGSFFLYSKLTVDKSRWQQGNVFSCSVMHEALHNHYTQKSLSLSPGKLEPPPSTVSNMATVAVLVVLGAAIVTGAVVAFVMKMRRRNTGGKGGDYALAPGSQTSDLSLPDCKVMVHDPHSLA															2.3	
human IgG2 anti-mouse CD40 surface displayed antibody, Fc mutant V266A (antibody, name in EU numbering, as m1; positions are Eu numbers; copies: 2 + 2) light chain (with the P2A rest): DTVLTQSPALAVSPGERVTISCRASDSVSTLMHWYQQKPGQQPKLLIYLASHLESGVPARFSGSGSGTDFTLTIDPVEADDTATYYCQQSWNDPWTFGGGTKLELKRTVAAPSVFIFPPSDEQLKSGTASVVCLLNNFYPREAKVQWKVDNALQSGNSQESVTEQDSKDSTYSLSSTLTLSKADYEKHKVYACEVTHQGLSSPVTKSFNRGECGSGATNFSLLKQAGDVEENPG heavy chain: EVQLVESDGGLVQPGRSLKLPCAASGFTFSDYYMAWVRQAPTKGLEWVASISYDGSSTYYRDSVKGRFTISRDNAKSTLYLQMDSLRSEDTATYYCGRHSSYFDYWGQGVMVTVSSASTKGPSVFPLAPCSRSTSESTAALGCLVKDYFPEPVTVSWNSGALTSGVHTFPAVLQSSGLYSLSSVVTVPSSNFGTQTYTCNVDHKPSNTKVDKTVERKCCVECPPCPAPPVAGPSVFLFPPKPKDTLMISRTPEVTCVVVDASHEDPEVQFNWYVDGVEVHNAKTKPREEQFNSTFRVVSVLTVVHQDWLNGKEYKCKVSNKGLPAPIEKTISKTKGQPREPQVYTLPPSREEMTKNQVSLTCLVKGFYPSDIAVEWESNGQPENNYKTTPPMLDSDGSFFLYSKLTVDKSRWQQGNVFSCSVMHEALHNHYTQKSLSLSPGKLEPPPSTVSNMATVAVLVVLGAAIVTGAVVAFVMKMRRRNTGGKGGDYALAPGSQTSDLSLPDCKVMVHDPHSLA																3.1
